Results on two molecules are retold here after patent publication US11813311B2, “Treatment and prevention of metabolic diseases” (Singapore Health Services PTE LTD., priority 2019, dated 2023).

Read-outs that look alike come from different tables or passages of the source.

In one experiment the test system is HFMCD-fed mice. In words: Early-stage HFMCD NASH, antibody from week 1. It is filed as in vivo, mouse. The note with it: for development of fibrosis / lipid droplets in livers: HFMCD, 10 mg/kg biweekly from week 1; for hepatic lipid metabolism (lipogenesis and β-oxidation gene expression): RNA-seq, compared to IgG. As for the experimental part:
FIGS. 22A to 22K. Neutralisation of Il-11 signalling reverses liver damage in early stage NASH. (A) Relative liver mRNA expression of fibrosis and inflammation markers from mice fed with NC or HFMCD diets for the indicated time points. (B) Schematic of the anti-IL-11 therapy experiment early on in the HFMCD diet NASH model. Antibody treatments were started 1 week after the start of NASH diet when X209, X203, or IgG (10 mg/kg, biweekly) were administered intraperitoneally for 5 weeks. (C) Representative gross liver images and (D) Masson's Trichrome stained images of livers (scale bars, 100 μm) after 5 weeks of IgG or X209 treatments. (E) Hepatic triglyceride levels (n≥5/group), (F) liver hydroxyproline content of X209- and IgG-treated mice (n≥5/group), (G) serum ALT levels (n≥5/group). (H) Immunofluorescence images of IL6R and IL11RA expression in hepatocytes (scale bars, 100 μm). Dose-dependent effect of (I) IL-11 on ALT in hepatocyte supernatant and (J) stress fibers formation (rhodamine-phalloidin staining) in hepatocyte (scale bars, 200 μm). (K) IL-11 protein is secreted from primary human hepatocytes stimulated with TGFβ1 (5 ng/ml); 24 h. (E) Data are shown as box-and-whisker with median (middle line), 25th-75th percentiles (box) and min-max percentiles (whiskers); (F-G,I,K) data are shown as mean±s.d. (E) Tukey-corrected Student's t-test; (F,G) two-way ANOVA; (I,K) two-tailed Dunnett's test. FC: fold change; NC: normal chow; HFMCD: high fat methionine- and choline-deficient.
High fat methionine and choline-deficient (HFMCD) diet fed wild-type mice Five week old male C57BL/6N mice were fed with Methionine and Choline deficient diet supplemented with 60 kcal % fat (A060713011316, Research Diets); control mice were fed with normal chow (NC, Specialty Feeds). Durations of diet and antibody therapies are described.
Immune cells were isolated from liver as described previously 20. Liver tissues were minced and digested with 100 μg/ml Collagenase IV and 20 U/ml DNase I, at 37° C. for 1 h. Following digestion, cells were passed through strainer to obtain single cell suspension and subjected to percoll gradient centrifugation for isolation of immune cells. CyTOF staining was performed as previously described 21. Cells were thawed and stained with cisplatin (Fluidigm) to identify live cells, followed by staining with metal-conjugated CD45 antibody, for barcoding purpose. After barcoding, cells were stained with metal-conjugated cell surface antibody (Ly6C). Cells were then fixed with 1.6% PFA, permeabilized with 100% methanol, and subjected to intracellular antibody staining (TGFβ1). Cells were labeled with DNA intercalator before acquisition on Helios mass cytometer (Fluidigm). For analysis, first live single cells were identified, followed by debarcoding to identify individual samples. Manual gating was performed using Flowjo software (Flowjo).

Another experiment deals with TGFβ1-stimulated HSCs. In words: Inhibition of MMP2 secretion by TGFβ1-stimulated HSCs (IC50). It is filed as cell-based, human. As for the experimental part:
HSCs (5300, ScienCell) were cultured in stellate cells complete media (5301, ScienCell) on poly-L-lysine-coated plates (2 μg/cm2, 0403, ScienCell).
HSCs were stimulated with TGFβ1(5 ng m1^−1, 24 h) in the presence of IgG (4 μg ml^−1) and varying concentrations of X209 (4 μg ml^−1 to 61 pg ml^−1; 4-fold dilutions). Supernatants were collected and assayed for the amount of secreted MMP2. Dose-response curves were generated by plotting the logarithm of X209 tested concentration (pM) versus corresponding percent inhibition values using least squares (ordinary) fit. The IC50 value was calculated using log(inhibitor) versus normalized response-variable slope equation.
The levels of IL-11 and MMP-2 in equal volumes of cell culture media were quantified using Human IL-11 Quantikine ELISA kit (D1100, R&D Systems) and Total MMP-2 Quantikine ELISA kit (MMP200, R&D Systems), respectively. Total secreted collagen in the cell culture supernatant was quantified using Sirius red collagen detection kit (9062, Chondrex). Total hydroxyproline content in the livers was measured using Quickzyme Total Collagen assay kit (Quickzyme Biosciences). Mouse serum levels of alanine aminotransferease (ALT), cholesterol, and triglycerides were measured using Alanine Transaminase Activity Assay Kit (ab105134, abcam), Cholesterol Assay Kit (ab65390, abcam), and Triglyceride Assay Kit (ab65336, abcam), respectively. […]

B1: X203: mouse anti-mouse IL-11 IgG (IgG1κ), neutralising; VH SEQ ID NO:22, VL SEQ ID NO:23 (antibody, V domains shown)
VH: EVQLQQSGPELVKPGASVKIPCKASGYTFTDYNMDWVKQSHGKSLEWIGDINPHNGGPIYNQKFTGKATLTVDKSSSTAYMELRSLTSEDTAVYYCARGELGHWYFDVWGTGTTVTVSS
VL: DIVLTQSPASLAVSLGQRATISCRASKSVSTSGYSYIHWYQQKPGQPPKLLIYLASNLDSGVPARFSGSGSGTDFTLNIHPVEEEDAATYYCQHSRDLPPTFGGGTKLEIK
modifications: Enx203 VH; Enx203 VL
B1: in the experiment on HFMCD-fed mice, the development of fibrosis entry is on record as “nor did these mice develop fibrosis”; the “lipid droplets in livers” value was “not seen”; the “hepatic lipid metabolism (lipogenesis and β-oxidation gene expression)” value is recorded as “improved hepatic lipid metabolism”. In addition, in the experiment with TGFβ1-stimulated HSCs (read-out: IC50 for HSC activation), the IC50 worked out at 0.0401 nM.

B2: X209: mouse anti-mouse IL-11Rα IgG (IgG1κ), neutralising; VH SEQ ID NO:24, VL SEQ ID NO:25 (antibody, V domains shown)
VH: QVQLQQPGAELVRPGSSVKLSCKASGYTFTNYWMHWLKQRPVQGLEWIGNIGPSDSKTHYNQKFKDKATLTVDKSSSTAYMQLNSLTSEDSAVYYCARGDYVLFTYWGQGTLVTVSA
VL: DIVLTQSPATLSLSPGERATLSCRASQSISNNLHWYQQKSHEAPRLLIKYASQSISGIPARFSGSGSGTDFTLSFSSLETEDFAVYFCQQSYSWPLTFGQGTKLEIK
modifications: Enx209 VH; Enx209 VL
Regarding B2, in the experiment on HFMCD-fed mice (HFMCD diet), the “circulating TGFβ1 levels” value is on record as “reduced”. In the experiment on HFMCD-fed mice, the development of fibrosis result is reported as “nor did these mice develop fibrosis”; the “lipid droplets in livers” value is given as “not seen”; the “hepatic lipid metabolism (lipogenesis and β-oxidation gene expression)” value is “more so than X203, improved hepatic lipid metabolism”. Also, in the experiment with HFMCD-fed mice (during steatohepatitis, CyTOF), the “Ly6C+veTGFβ1+ve cells” value is “specific reduction” and the “immune cells in liver” value is given as “fewer immune cells”. Moreover, in the experiment with TGFβ1-stimulated HSCs (TGFβ1 5 ng/ml, 24 h, 4 μg/ml to 61 pg/ml, 4-fold dilutions, read-out: IC50, blocking MMP2 secretion from HSCs), the IC50 amounted to 0.0058 nM.

A word on the IC50: it is the midpoint of a concentration-inhibition curve.
